In patent US8354392B2, “Drug-introduced photo-crosslinked hyaluronic acid derived gel” (priority 2005, dated 2013) one finds viscosity, Extruded state and Extrusion feeling data, which are given here for five substances.

What all share (assay type): physicochemical
Data set [1] is described as follows: Viscosity measured with a rotation viscometer. The note with it: gel from 1% solution in phosphate buffered physiological saline, photoirradiated, heat treatment; rotation viscometer at 20° C., standard cone (1°34′, 1 rpm). The procedure:
A 1% phosphate buffered physiological saline solution of the obtained naproxen-introduced photo-reactive HA (photo-reactive group: cinnamic acid) was prepared, and filled in a 5 mL glass syringe.
(§1) Evaluation was carried out in accordance with the following criteria.

The nature of data set [2]: Extrusion state from the tip of a 23 G injection needle (characteristics). Further details: key: ◯: formed a mass or a lump having a shape-maintaining property at the tip of the injection needle; X: did not form a mass. The note with it: slowly extruded from an injection needle with 23 G downward. The procedure:
as §1

A short description of data set [3]: Extrusion feeling through a 23 gauge injection needle. More on the design: key: ◯: easily extruded; X: difficulty extruded. The note with it: whole gel (2 ml to 5 ml) in 5 ml syringe, 23 gauge needle, limit pressure 0.5 to 5 kg/cm^2. The procedure: Evaluation was carried out in accordance with the following criteria. ◯: easily extruded X: difficulty extruded Incidentally, with regard to the criteria for the extrusion feeling, within the range of a limit pressure (0.5 to 5 kg/cm^2), when a whole gel (2 ml to 5 ml) filled in a syringe having a volume of 5 ml was extruded through an injection needle of 23 gauge, it was evaluated to as easily extruded (◯). Also, according to the same operation, when not a whole gel filled in a syringe was extruded, for example, by clogging due to insoluble materials, it was evaluated to as difficulty extruded (X).

On to “actarit-introduced photo-crosslinked HA gel [Example 8]”, for which the viscosity (as a rule, the resistance of a fluid to flow) in data set [1] is 10.8 Pa·s. Also, the Extruded state result in data set [2] was “◯”. The Extrusion feeling result in data set [3] is on record as “◯”.

On to “felbinac-introduced photo-crosslinked sodium hyaluronate gel [Example 5]”, for which the viscosity in data set [1] is given as 7.32 Pa·s. For the same substance, the Extruded state result in data set [2] was “X”. In addition, in data set [3], the Extrusion feeling result was “◯”.

With “ibuprofen-introduced photo-crosslinked HA gel [Example 3]”, in data set [1], the viscosity is reported as 13.1 Pa·s. The Extruded state result in data set [2] is recorded as “◯”. The Extrusion feeling entry in data set [3] is on record as “◯”.

“flurbiprofen-introduced photo-crosslinked HA gel [Example 4]” registered a viscosity in data set [1] of 21.2 Pa·s. The Extruded state result in data set [2] is “◯”. Also, in data set [3], the Extrusion feeling entry is listed as “◯”.

“etodolac-introduced photo-crosslinked HA gel [Example 7]”: in data set [1], the viscosity amounted to 12.7 Pa·s. Further, the Extruded state result in data set [2] is “◯”. For the same substance, in data set [3], the Extrusion feeling result is “◯”.
